The text below walks through data of patent US20120177639A1 (Sanofi, published 2012).

The labels stand for the following.
B1: humanized anti-peptide Aβ antibody VH1VL1 (LP09027) (antibody, human IgG4 S228P, kappa, V domains shown)
VH: EVQLQQSGPEVVKPGVSVKISCKGSGYTFTDYAMHWVKQSPGKSLEWIGVISTKYGKTNYNPSFQGQATMTVDKSSSTAYMELASLKASDSAIYYCARGDDGYSWGQGTSVTVSS
VL: EIVMTQTPLSLPVSLGDRASISCRSGQSLVHSNGNTYLHWYLQKPGQSPKLLIYTVSNRFSGVPDRFSGSGSGSDFTLTISRVEAEDLGVYFCSQNTFVPWTFGGGTKLEIKR
notes: Humanized from murine antibody 13C3; Made in FreeStyle 293-F cells; hetero-tetramer of 150 kDa; also called 13C3-VH1VL1; Antibody 1 VH1VL1

For assay [1], the target named is B1. The assay can be described thus: competitive ELISA, antibody 0.02 µg/ml pre-incubated with the peptide, free antibody read on coated Aβ1-42. The protocol:
The antibody/antigen mixture is then deposited in each well and the microtitration plate is incubated for 1 h at room temperature. The free, uncomplexed antibody is determined according to the same ELISA protocol as described previously.
Background: An ELISA detects its analyte on a solid surface through an enzyme-linked reagent.

In a further assay the target is T1, fibrils of IAPP (UniProt P10997 34-70).
T1 construct: Insoluble fibrils formed by 72 h at 37 °C; also called Islet Amyloid Polypeptide
T1 peptide (looked up): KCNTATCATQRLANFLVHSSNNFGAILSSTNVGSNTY
The assay can be described thus: ELISA on coated fibrils (IAPP at 0.5 µg/ml).

Description for fibrils of IAPP: 50 μl of fibrils of Aβ1-42 at 1 μg/ml and IAPP at 0.5 μg/ml are deposited in each well of a microtitration plate. The ELISA protocol is applied using serial dilutions of the humanized antibody starting from 10 μg/ml.

As to GSNKGAIIGLM (peptide, UniProt P05067 696-706, looked up, range 25-35) [peptide Aβ25-35], the binding result in assay [1] is listed as “no binding”.

Turning to B1, the binding result with fibrils of IAPP was “no binding”. In the case of DAEFRHDSGYEVHHQK (peptide, UniProt P05067 672-687, looked up, range 1-16) [peptide Aβ1-16], the binding result in assay [1] is “no binding”.
